What all share (assay): cell-based or functional assay
The target in test [1] is aMLV envelope protein on pseudovirus.
In test [2] the target is HIV-1 Env of isolate MGRM-D-024 (clade D pseudovirus) (HIV-1).
Test [3] deals with HIV-1 envelope glycoprotein (Env) of isolate 92UG031, clade A (HIV-1).
In test [4] the target is HIV-1 94UG114 envelope glycoprotein (Env) on pseudovirus (HIV-1 (isolate 94UG114, clade D)).
In test [5] the target is HIV-1 Env of isolate THR0.18 (Acute), clade B, on pseudovirus (HIV-1).
Test [6] concerns the target HIV-1 envelope glycoprotein (Env) of isolate 92RW020, clade A (HIV-1).
The target in test [7] is HIV-1 envelope glycoprotein (Env) of isolate MGRM-A-013, clade A (HIV-1).
Test [8] deals with HIV-1 Env of isolate 93IN905 (HIV-1).
In test [9] the target is HIV-1 Env of isolate MGRM-Chronic-B-004, clade B, on pseudovirus (HIV-1).
Test [10] concerns the target HIV-1 Env of isolate MGRM-D-028 (clade D pseudovirus) (HIV-1).
Test [11] has as its target HIV-1 92UG005 envelope glycoprotein (Env) on pseudovirus (HIV-1).
Test [12] concerns the target HIV-1 Env of isolate MGRM-Chronic-B-008, clade B, on pseudovirus (HIV-1).
Test [13] deals with HIV-1 Env of pseudovirus MGRM-F1-016 (HIV-1).
The target of test [14] is HIV-1 Env of isolate 97ZA012 (clade C) (HIV-1 isolate 97ZA012).
Test [15] deals with HIV-1 Env of pseudovirus MGRM-G-017 (HIV-1, clade G isolate MGRM-G-017).
The target in test [16] is HIV-1 Env of pseudovirus MGRM-G-013 (HIV-1, clade G isolate MGRM-G-013).
For test [17], the target named is HIV-1 Env of pseudovirus MGRM-AG-005 (clade CRF_AG) (HIV-1).
Test [18] concerns the target HIV-1 Env of isolate TRO.11 (Acute), clade B, on pseudovirus (HIV-1).
Test [19] deals with HIV-1 Env of pseudovirus MGRM-AG-002 (clade CRF_AG) (HIV-1).
Test [20] addresses HIV-1 Env of pseudovirus MGRM-AE-002 (clade CRF01_AE) (HIV-1).
Test [21] has as its target HIV-1 Env of isolate NL43, clade B, on pseudovirus (HIV-1).
The target of test [22] is HIV-1 Env of pseudovirus MGRM-G-006 (clade G) (HIV-1).
For test [23], the target named is HIV-1 Env of isolate APV_17 (subtype B pseudovirus) (HIV-1).
The target in test [24] is HIV-1 Env of isolate MGRM-D-016 (pseudovirus) (HIV-1).
In test [25] the target is HIV-1 Env of isolate MGRM-F1-017 (HIV-1).
Test [26] has as its target HIV-1 Env of isolate MGRM-F1-022 (HIV-1).
For test [27], the target named is HIV-1 Env of isolate 92UG024 (clade D), on pseudovirus (HIV-1).
The target in test [28] is HIV-1 Env of isolate MGRM-F1-014 (HIV-1).
In test [29] the target is HIV-1 JRCSF Env (pseudovirus, clade B) (HIV-1) (UniProt P20871).
Test [30] deals with HIV-1 Env of pseudovirus isolate MGRM-G-025 (HIV-1).
In test [31] the target is HIV-1 APV13 Env (pseudovirus) (HIV-1).
The target of test [32] is HIV-1 Env of isolate MG RM-D-011 (HIV-1).
For test [33], the target named is HIV-1 Env of isolate MGRM-Chronic-B-008 (subtype B) (HIV-1).
The target of test [34] is HIV-1 Env of isolate MGRM-AG-001 (subtype AG) (HIV-1).
Test [35] deals with HIV-1 Env of isolate MGRM-A-004 (HIV-1).
For test [36], the target named is HIV-1 Env of isolate MGRM-A-008 (subtype A) (HIV-1).
The target in test [37] is HIV-1 Env of isolate MGRM-A-013 (subtype A) (HIV-1).
In test [38] the target is HIV-1 envelope glycoprotein (Env) of isolate MGRM-C-022 (HIV-1).
For test [39], the target named is HIV-1 Env of isolate 93UG077 (HIV-1).
Test [40] addresses HIV-1 Env of isolate 93IN905 (subtype C) (HIV-1).
The target of test [41] is HIV-1 envelope glycoprotein (Env) of isolate MGRM-C-015 (HIV-1).
For test [42], the target named is HIV-1 Env of isolate MGRM-AG-009 (subtype AG) (HIV-1).
Test [43] has as its target HIV-1 Env of isolate MGRM-AE-008 (subtype AE) (HIV-1).
The target in test [44] is HIV-1 Env of isolate 94KE105 (subtype AC) (HIV-1).

The values below come from patent US20250320281A1.

Some results are limits rather than exact numbers.

2F5 (antibody): the IC50, pseudovirus neutralization in [1] is more than 50 µg/mL; in [11] it was 11.8 µg/mL. The IC50 (µg/ml), pseudovirus neutralization in test [2] was more than 50 µg/mL; in [3], 3.81 µg/mL; in [4], more than 50 µg/mL; in [5], more than 50 µg/mL; in test [6] it was 3.36 µg/mL; in [7], 0.66 µg/mL. The IC50 (µg/ml), pseudovirus neutralization was 2.41 µg/mL in [9]; more than 50 µg/mL in [10]; more than 50 µg/mL in test [12]; 21.5 µg/mL in test [13]; more than 50 µg/mL in [14]; 0.6 µg/mL in test [15]. The values for the IC50 (µg/ml), pseudovirus neutralization in test [16], in test [18] and in test [21] were 0.59 µg/mL, more than 50 µg/mL and 2.02 µg/mL, respectively. In addition, the IC50 in [8] is more than 50 µg/mL; in test [17], more than 50 µg/mL; in test [19], 0.54 µg/mL; in test [20], 0.31 µg/mL; in [22] it was 1.33 µg/mL.
For the substance 2G12 (antibody), the IC50, pseudovirus neutralization in test [1] and in [11] was more than 50 µg/mL in each case. Besides, the IC50 (µg/ml), pseudovirus neutralization in test [2] is more than 50 µg/mL; in [3] it was more than 50 µg/mL; in [4] it was 13.9 µg/mL; in [5] it was more than 50 µg/mL; in test [6], 0.48 µg/mL; in test [7], more than 50 µg/mL. Besides, the IC50 (µg/ml), pseudovirus neutralization in test [9] was 8.65 µg/mL; in test [10], more than 50 µg/mL; in [12] it was 0.55 µg/mL; in test [13], more than 50 µg/mL; in [14], more than 50 µg/mL; in test [15], more than 50 µg/mL. For the same substance, the figures for the IC50 (µg/ml), pseudovirus neutralization in test [16], in test [18] and in [21] were more than 50 µg/mL, 0.29 µg/mL and 0.49 µg/mL, respectively. In addition, the IC50 in test [8] was more than 50 µg/mL; in test [17], more than 50 µg/mL; in test [19], 0.54 µg/mL; in test [20], more than 50 µg/mL; in [22], more than 50 µg/mL.
Turning to 4838_L06 (PGT-121) (antibody), the values for the IC50 (µg/mL), pseudovirus neutralization in test [23], in test [25] and in test [26] were 0.066 µg/mL, 16.9 µg/mL and 0.104 µg/mL, respectively. In addition, the IC50, pseudovirus neutralization in test [24] was more than 50 µg/mL; in test [27] it was more than 10 µg/mL.
As to 4858_P08 (PGT-123) (antibody), the IC50 (µg/mL), pseudovirus neutralization in [23] is 0.114 µg/mL; in [28], 0.111 µg/mL; in [25], more than 50 µg/mL; in test [26], 0.075 µg/mL; in test [30], 0.046 µg/mL. The neutralization IC50 in [11] amounted to 2.49 µg/mL. The neutralization IC80 in test [11] is more than 10 µg/mL. In [11], the neutralization IC90 was more than 10 µg/mL. The substance further displayed a neutralization IC95 in test [11] of more than 10 µg/mL. The IC50, pseudovirus neutralization in test [24] is more than 50 µg/mL; in [27] it was more than 10 µg/mL. In test [29], this substance had an IC50 neutralization of 0.0423 µg/mL. For the same substance, the neutralization IC50 (pseudovirus) in [31] was determined as 0.222 µg/mL.
Take 4877_D15 (PGT-122) (antibody): the IC50 (µg/mL), pseudovirus neutralization was 0.25 µg/mL in test [23]; 0.195 µg/mL in test [28]; more than 50 µg/mL in [25]; 0.277 µg/mL in test [26]; 0.079 µg/mL in [30]. Further, the IC50, pseudovirus neutralization is more than 50 µg/mL in test [24] and more than 10 µg/mL in test [27]. The same substance came in with an IC50 neutralization in test [29] of 0.0727 µg/mL. Besides, in [31], the neutralization IC50 (pseudovirus) is 0.992 µg/mL.
Consider 5123_A06 (PGT-125) (antibody), for which the IC50 (µg/mL), pseudovirus neutralization in test [23] was 8.06 µg/mL; in test [28] it was more than 50 µg/mL; in test [25], more than 50 µg/mL; in test [26], more than 50 µg/mL; in test [30] it was more than 50 µg/mL. The results for the IC50, pseudovirus neutralization in test [24] and in test [27] were 0.12 µg/mL and more than 10 µg/mL, respectively. The IC50 neutralization in [29] is 0.006 µg/mL. Also, the neutralization IC50 (pseudovirus) in test [31] came out at 0.0128 µg/mL.
On to 5141_B17 (PGT-126) (antibody), for which the IC50 (µg/mL), pseudovirus neutralization is 0.353 µg/mL in test [23]; more than 50 µg/mL in test [28]; more than 50 µg/mL in [25]; more than 50 µg/mL in test [26]; 17.1 µg/mL in [30]. The IC50, pseudovirus neutralization was 0.0181 µg/mL in [11], more than 50 µg/mL in [24] and more than 10 µg/mL in test [27]. In test [11], this substance returned an IC80 (pseudovirus neutralization) of 0.145 µg/mL. Further, the IC90 (pseudovirus neutralization) in test [11] was found to be 0.553 µg/mL. In test [11], this substance registered an IC95 (pseudovirus neutralization) of 2.45 µg/mL. Moreover, in test [29], the IC50 neutralization came out at 0.0061 µg/mL. The substance also had a neutralization IC50 (pseudovirus) in [31] of 0.012 µg/mL.
Turning to 5145_B14 (PGT-127) (antibody), the IC50 (µg/mL), pseudovirus neutralization in test [23] was 10.4 µg/mL; in [28], more than 50 µg/mL; in test [25], more than 50 µg/mL; in test [26], more than 50 µg/mL; in test [30] it was 19.3 µg/mL. Also, the IC50, pseudovirus neutralization in test [24] was more than 50 µg/mL.
For 5343_B08 (PGT-135) (antibody), the IC50 (µg/mL), pseudovirus neutralization in [32] was 23.5 µg/mL; in test [34], more than 50 µg/mL; in [36], more than 50 µg/mL; in test [37], more than 50 µg/mL; in test [38], more than 50 µg/mL; in test [41], 0.104 µg/mL. The IC50 (µg/mL), pseudovirus neutralization in [42] is more than 50 µg/mL; in [30], 0.592 µg/mL; in test [43], more than 50 µg/mL; in test [44], 0.063 µg/mL. The values for the IC50 neutralization in [33], in test [29] and in test [40] were more than 50 µg/mL, 0.113 µg/mL and 0.011 µg/mL, respectively. Moreover, the IC50 in test [35] and in test [39] was more than 50 µg/mL throughout. Besides, in test [27], the IC50, pseudovirus neutralization stood at 0.0139 µg/mL. Besides, the IC50 (neutralizing activity, pseudovirus) in [31] turned out to be 0.545 µg/mL.
